Measurements taken from patent publication US20040214773A1 (UNIVERSITY OF CHICAGO, published 2004).

Biological target: human cathepsin B (human, UniProt P07858 80-333)
Assay: second-order association rate constant from continuous hydrolysis of (Z-FR)2-R110, pseudo-first order conditions, 20 nM cathepsin B, 200 or 400 nM Spi2A
Method: Kinetics of cathepsin B inhibition by Spi2A. […] Briefly, 20 nM cathepsin B was added to 5 μM substrate, in presence or in absence of 200 or 400 nM (10- or 20-fold excess respectively) of Spi2A in activation buffer. Reactions were performed in 96-well microtitre plates. The final reaction volume was 200 μl. The rate of substrate hydrolysis was continuously monitored for 3 min. The dead time for the measurement (the time between the addition of the enzyme to the substrate (with or without inhibitor) and the first spectrophotometric measurement was ˜30 s.

B1: Spi2A-3xFLAG (murine serine protease inhibitor 2A with a C-terminal 3xFLAG epitope tag) (other)
chain: MAGVSPAVFGCPDVTLGRNTAVREVQENVTSVDSLTLVSSNTDFAFSLYRKLVLKNPDENVVFSPFSICTALALLSLGAKSNTLKEILEGLKFNLTETPEPDIHQGFRYLLDLLSQPGNQVQISTGSALFIEKHLQILAEFKEKARALYQAEAFTADFQQPLKATKLINDYVSNHTQGKIKELISGLKESTLMVLVNYIYFKGKWKNPFDPNDTFKSEFYLDEKRSVIVSMMKTGYLTTPYFRDEELSCTVVELKYTGNASAMFILPDQGRMQQVEASLQPETLRKWKNSLKPRMIHELRLPKFSISTDYSLEHILPELGIREVFSTHADLSAITGTKDLRVSQVVHKAVLDVAEKGTEAAAATGMAGVGCCAVFDFLEIFFNRPFLMIISDTKAHIALFMAKVTNPERSTNFPNGEGASSQRLESKRLCFGDPLCLIGQ
notes: Purified from lysates of RelA-/- MEFs transduced with retrovirus encoding Spi2A-3xFLAG (ion exchange, then anti-FLAG column); The ORF was amplified from T cell cDNA; also called FLAG-tagged Spi2A; not shown: C-terminal 3xFLAG (22 amino acids) from the 3xFLAG-CMV-14 vector
- kon: > 1e+06 M⁻¹ s⁻¹
